Results: US20190241619A1

Molecular target: HLA-B15 (human)
Assay: experimental peptide-HLA binding affinity; method not described

Substance	Binding affinity [µM]
HPV16 E7/15-25 peptide …	7.3
HPV16 E7/15-23 peptide …	4.68
HPV16 E7/15-24 peptide …	38.5
